Measured values taken from patent US20250051759A1, “METHODS AND MOLECULES FOR RNA INTERFERENCE (RNAi)” (BOEHRINGER INGELHEIM INTERNATIONAL GMBH, priority 2021, published 2025).
Changes are numbered by the printed parent chain. Entries after “also recorded” stand apart in the source; their conditions may differ.

B1: ARTi-shRNA 6634: ARTi-shRNAmir, antisense RNA UUCGAUUAAAACAUCAUCCGGA (SEQ ID NO: 10), 97 mer SEQ ID NO: 22 (nucleic acid)
chain: UGCUGUUGACAGUGAGCGCCCGGAUGAUGUUUUAAUCGAAUAGUGAAGCCACAGAUGUAUUCGAUUAAAACAUCAUCCGGAUGCCUACUGCCUCGGA
B2: ARTi-shRNA 6786: ARTi-shRNAmir, antisense RNA UUCGUAUACAAUAUCAUCCGGA (SEQ ID NO: 12), 97 mer SEQ ID NO: 24 (nucleic acid)
chain: B1 chain with G29A, U32G, A35U, U36A, A64U, U65A, A68C, C71U
B3: ARTi-shRNA 6570: ARTi-shRNAmir, antisense RNA UUCGAUAACAAUAUCAUCCGGA (SEQ ID NO: 6), 97 mer SEQ ID NO: 18 (nucleic acid)
chain: B1 chain with G29A, U32G, A34U, U66A, A68C, C71U

What was measured:
RN2 (AML) cells = assay: Competitive proliferation assay; assay type: cell-based, mouse; conditions: monitored for 8 days, no endogenous target gene
Experimental: (§1) The 3 best-performing ARTi-shRNAmirs were analyzed for their effects on proliferation of diverse mouse cell lines originating from different tissues. This experimental step monitors potential off-target effects. Should an off-target, relevant to the proliferative capacity be knocked down, a decrease in cellular fitness would be expected. NIH 3T3 (embryonic fibroblasts), EPP2 (PDAC) and RN2 (AML) cells were transduced with ARTi-shRNAs or validated control shRNAs. Subsequently, the percentage of shRNA expressing cells was monitored via flow cytometry in regular intervals for 8 days in competitive co-culture assays. For competitive proliferation assays, NIH 3T3, EPP2 and RN2 cells were retrovirally transduced with shRNAmir expression plasmids and initial infection levels were determined by flow cytometry based on mCherry expression 4 days post transduction (Day 0). The percentage of infected cells was then further monitored in regular intervals to determine the effects of shRNA expression in the absence of an endogenous target gene for the ARTi-shRNAmirs.

[1] = system: NIH 3T3, EPP2 and RN2 cells; assay: Competitive proliferation assays, result stated for all cell lines together; assay type: cell-based, mouse; conditions: all tested cell lines, competitive co-culture
Experimental: as §1

[2] = system: NIH 3T3, EPP2 and MR125 cells; assay: Transcriptional profiling (QuantSeq) for off-target effects; assay type: cell-based, mouse; conditions: cells expressing ARTi-shRNAs vs empty vector control, no target gene expression
Experimental: To directly quantify off-target effects of the top 3 ARTi-shRNAs, transcriptome profiling in NIH 3T3, EPP2 and MR125 cells expressing ARTi-shRNAs or empty vector control was performed. For the unbiased identification of ARTi shRNA off-targets NIH-3T3, EPP2 and MR125 cells were retrovirally transduced with shRNAmir expression plasmids and selected for shRNA expression using G418 Sulfate (0.5 mg/mL for EPP2 and NIH 3T3 and 1 mg/mL for MR125, respectively; Gibco). 1.5×106 (NIH 3T3 and EPP2) or 2×106 (MR125) cells were pelleted, washed with PBS, lysed, treated with DNAse I and whole RNA was extracted using magnetic beads (in-house) and a KingFisher Duo Prime Purification System (ThermoFisher). Next generation sequencing libraries were prepared using QuantSeq 3′ mRNA-Seq Library Prep Kit (Lexogen) according to manufacturer's instructions and sequenced on a HiSeq2500 platform (Illumina).
RefSeq genes and 3′-UTR annotations were prepared from the UCSC table browser (https://genome.ucsc.edu/cgi-bin/hgTables, May 2016). […] Reads were aligned to the GRCm38 primary assembly using Slamdunk v0.2.410 in QuantSeq mode (slamdunk map-5 12-n 100-q) and alignments were filtered to recover multimappers with the acquired 3′-UTR set (slamdunk filter-b). Reads were quantified against said 3′-UTR annotation using featureCounts v1.5.0-p211 using stranded counting and counting multimapping reads (−M ˜s 1). […]

EGFR^del19::dsRed::ARTi = assay: Western blot of doxycycline induced knockdown in PC-9 cells; assay type: cell-based; conditions: endogenous EGFR knocked out, doxycycline induced expression
Experimental: The EGFR^del19::Linker::dsRed::ARTi construct was transduced into EGFR^del19dependent PC-9 cells. The endogenous EGFR gene was then knocked out using CRISPR/Cas9, making the PC-9 cells dependent on EGFR^del19::dsRed::ARTi. PC-9 cell pellets for different genetic backgrounds and treatments were lysed in triton lysis buffer, sonicated, and stored at −80° C. until for protein detection, the pellets were thawed on ice, followed by 15 minutes centrifugation at 13,000 rpm at 4° C. Then, cell lysates were loaded onto a 12% pre-casted SDS-polyacrylamide gel electrophoresis and proteins were transferred onto a nitrocellulose membrane and PDVF-membrane, respectively. Both membranes were probed with the respective primary antibodies overnight. The next day, the secondary antibodies conjugated with fluorescent dye were added and the proteins were detected by the Odyssey detection system.

Molecule | growth compared to non-transduced cells in competitive co-culture (RN2 (AML) cells) | growth compared to non-transduced cells in competitive co-culture (RN2 (AML) cells; listed as ARTi.6634) | percentage of shRNA expressing cells over time / toxicity [1] | transcriptional effects / responses (principal component analysis) [2] | EGFR^del19::dsRed::ARTi protein levels (EGFR^del19::dsRed::ARTi)
B1 | growth disadvantage; also recorded: adverse effect | considerable growth disadvantage | – | – | –
B2 | – | – | no considerable toxicity | only mild transcriptional responses | –
B3 | – | – | no considerable toxicity | only mild transcriptional responses | reduction
